{"source": "paper PMC7220375", "molecular_target": "full-length t-SNARE complex (mouse His6-SNAP25B, residues 1-206 and rat Syntaxin1A, residues 1-288) (mouse | rat) (UniProt P60879)", "sequence (P60879 whole entry, chain 1 of 2, the tested form may be a part)": "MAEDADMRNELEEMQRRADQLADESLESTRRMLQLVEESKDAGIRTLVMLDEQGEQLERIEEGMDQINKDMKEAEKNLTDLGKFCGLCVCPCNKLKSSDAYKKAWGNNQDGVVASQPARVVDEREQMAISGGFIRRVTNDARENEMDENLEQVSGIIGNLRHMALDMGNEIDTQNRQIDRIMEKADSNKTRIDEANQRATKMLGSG", "sequence (chain, as listed by the source, chain 2 of 2)": "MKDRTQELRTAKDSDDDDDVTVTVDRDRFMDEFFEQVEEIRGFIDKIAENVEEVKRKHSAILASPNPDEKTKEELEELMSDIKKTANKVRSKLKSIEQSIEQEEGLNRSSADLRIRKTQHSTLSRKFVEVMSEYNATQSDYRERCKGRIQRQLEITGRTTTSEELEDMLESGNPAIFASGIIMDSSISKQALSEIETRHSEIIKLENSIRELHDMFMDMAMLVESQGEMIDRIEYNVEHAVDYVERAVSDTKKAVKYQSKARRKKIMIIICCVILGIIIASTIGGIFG"}
{"substance": "Syt1^LLQQ (rat Synaptotagmin1-His6, residues 57-421, L387Q/L394Q) (from UniProt P21707 57-421) (domain or fragment)", "values": [{"measurement": "share of clamped vesicles that stay unfused after Ca2+ (1 mM), normal VAMP2, with 2 µM Cpx (tripartite interface of Syt1 with Cpx and SNAREs)", "result": 25, "unit": "%"}]}
